Experimental data reported in the supplement of paper PMC9170038.

Test system: MS2 coat protein
Assay: apparent KD of MS2 coat protein; designed switch direction (-1 OFF switch, 1 ON switch): -1; higher = weaker reporter binding
Method in brief: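 Designed RNA switches were transcribed on Illumina chips by stalled E. coli RNA polymerase and titrated with SNAP-549-labelled MS2 coat protein from 0.7 or 1.5 nM, doubling to 3 µM. Step length ran from 0.8–1.5 h at the lowest concentration to 10–20 min at the highest. The apparent KD is the median over clusters for each design, from curve-fitted normalised cluster fluorescence.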

[1] = Eterna round: R95, input ligand: FMN 200 uM
[2] = Eterna round: R95, input ligand: microRNA oligo, concentration not stated
[3] = Eterna round: R95, input ligand: none
[4] = input ligand: microRNA oligo, concentration not stated

Row | Sequence | apparent KD of MS2 coat protein [1] | apparent KD of MS2 coat protein [2] | apparent KD of MS2 coat protein [3] | apparent KD of MS2 coat protein (input ligand: FMN 200 uM) | apparent KD of MS2 coat protein (input ligand: none) | apparent KD of MS2 coat protein [4]
1 | CUGAGCAGACGGAGAUCCAACAUGAGGAUCACCCAUGUCUCAAAAGCUUUUUGCUCGUCUUAUUCUCCUCUGUUCUC [Ainre] (puzzle: Sensor v3, turn-off variant 1) | 14.3 nM | 33.3 nM | 12.5 nM | – | – | –
2 | UUUAAAACAUAGGAUAUCGAAAUUAUCAUUUAACGAGAAGGAUGAACAUGAGGAUCACCCAUGUGGUAUCAUGG [Mat - Exclusion 6 - JL Mod - D17] (puzzle: Exclusion 6) | 202 nM | 184 nM | 123 nM | – | – | –
3 | GCAUUUGAGCAGGAUAUAGCCUGAACAUAAUGGUUAGAAGGGCUCACAUGAGGAUCACCCAUGUGGUGUCCAAA [Inratete] (puzzle: Exclusion 6) | 76.4 nM | 15.3 nM | 15.6 nM | – | – | –
4 | AAGAAACAUGAGGAUCACCCAUGUGAGGAUAUGAAAAAGAAAAGAAAAGAAAGAAGAAUCAGAAGGCACAAAGG [salish99-ex1_r3_019] (puzzle: Exclusion 1) | 40.5 nM | 30.7 nM | 34 nM | – | – | –
5 | AGCAUGCUAGGAUAUACGGGACAUUAGGGUUCGUCGUAUGGACAUGAGGAUCACCCAUGUAGAAGGAGCGUGCA [Mat - Exclusion 2 - Mod of Hyphema - D93] (puzzle: Exclusion 2) | – | 19.9 nM | – | – | – | –
6 | ACACAAAGCUAGGAUAUCCAGGCAUCUUCGGCCGGAGAAGGAGCCACAUGAGGAUCACCCAUGUGGUGAUCCUG [eternacac ex6r4 sub5] (Eterna round: R97, puzzle: Exclusion 6) | – | – | – | 70.9 nM | 50.6 nM | –
7 | CUUAUGUGAGGAUAUCAGUAGUGAUACGAUAGUAUUACUGCUGAGAAGGUACAUGAGGAUCACCCAUGUUCCUC [Exclusion 4 - Mod Omei Ex4 344 mod 4 v.1] (puzzle: Exclusion 4) | – | 16.2 nM | – | – | – | –
8 | AGAUCUAGGACAGGAUAUAUAGAUGGCUUCAUCGAAGAUGAAGCCAUCACAUGAGGAUCACCCAUGUAGAAGGGUCCUAGAUCA [Omei Exc(NG) 2Av6] (Eterna round: R96, puzzle: Exclusion NG 2) | – | – | – | 10.9 nM | 10.3 nM | 8.74 nM
9 | GGCAUGUAAGGAUAUGCCACGCAGUCCUUUGGGCUGCGUAAGCAGAAGGUACAUGAGGAUCACCCAUGUGAUAA [jl-ex4-4.56 ViennaUCT mod] (Eterna round: R97, puzzle: Exclusion 4) | – | – | – | 865 nM | 591 nM | –
10 | AGUCGGCGAGGAUAUACAUGAGGAUCACCCAUGUGUGAUCCUAGACCUGUAGGUCCAUGUAGAAGGCGCUGACA [Exclusion 3 - Was a mod at one point] (puzzle: Exclusion 3) | – | 18.8 nM | – | – | – | –
11 | UUAAUUAAUUAAUUAUAAGAUCAACAUGAGGAUCACCCAUGUGAGGAUAUCAGCUCGUGUAGAGCUGAGAAGGCACAAAUAAUU [ExNG3/16-B3] (Eterna round: R96, puzzle: Exclusion NG 3) | – | – | – | 86.5 nM | 51.5 nM | 27.9 nM
12 | UGUCAGAUGGUAGGAUAUUCAUAUCGAGUGACCCUUUCAUAACAUGAGGAUCACCCAUGUCGGUGGGAGAAGGGCCGUAUGGUG [salish99_ExNG02_R04_030] (Eterna round: R96, puzzle: Exclusion NG 2) | – | – | – | – | – | 22.7 nM
13 | UAAUUUUUAGUAAGGAUAUCGGUCCCAAGGGACAACGAGAAGGUACAUGAGGAUCACCCAUGUGACGAAAGAAU [Mod of Zala 9 - Jieux - Brourd's Mod of Exclusion 4] (Eterna round: R97, puzzle: Brourd's mod of Exclusion 4) | – | – | – | 35.6 nM | 15.5 nM | –
14 | GGCAGCUCAGGAUAUAGUUAAAACGACAUGAGGAUCACCCAUGUGACUGAUAUGCGGCGCCUAGAAGGGAGGUGCC [Xeusisso] (puzzle: Exclusion 5) | – | 14.6 nM | – | – | – | –
15 | AAGAAGAAACAAGCUUUUUGCUCGUCUUAUAGUGACGCAACAUGAGGAUCACCCAUGUAUAGGAUGAGGGUGGAUAG [JR_SV3TOV2_Sub046] (puzzle: Sensor v3, turn-off variant 2) | 76.9 nM | 324 nM | 72 nM | – | – | –
16 | CCCUUGUGAGGAUAUAGUAGUUGCACAUCGAUAGAGUAACUCUAGAAGGCACAUGAGGAUCACCCAUGUACGAA [Eternabot (L1) Solution 56] (Eterna round: R97, puzzle: Exclusion 4) | – | – | – | 70.2 nM | 119 nM | –
17 | AGUUGACGAGAAGGAUAUCCGAACCUUUAAAGAGGAGAAGGUCUAUCAACAUGAGGAUCACCCAUGUACAUCGCUCGGGUGUCC [Arenis] (Eterna round: R96, puzzle: Exclusion NG 1) | – | – | – | – | – | 54.7 nM

Row | Sequence | apparent KD of MS2 coat protein [1] | apparent KD of MS2 coat protein [2] | apparent KD of MS2 coat protein [3] | apparent KD of MS2 coat protein (input ligand: FMN 200 uM) | apparent KD of MS2 coat protein (input ligand: none) | apparent KD of MS2 coat protein [4]
18 | AUUUAGAGAGGAUAUAUAUUUUAAAACAUGAGGAUCACCCAUGUAAUUUUAUGGGAGUAAAUAGAAGGCUCAUUUA [JMFs Solution 2] (puzzle: Exclusion 5) | 54.3 nM | 52.8 nM | 53.1 nM | – | – | –
19 | GCAGCAUAGAUAACAUACUGUUACAUGAGGAUCACCCAUGUAUAGGAUAUGGUCUGGAUUACAGGCCAGAAGGGUACAAGCUGC [Eli exng3 - 022] (Eterna round: R96, puzzle: Exclusion NG 3) | – | – | – | 12.6 nM | 14.4 nM | 9.84 nM
20 | GCAGACGUAGUGAGGAUAUGCUCUACCUCGGUAGAGCAGAAGGCACAUGAGGAUCACCCAUGUGGCUCCUCAUU [Omei Ex4B B22] (Eterna round: R97, puzzle: Brourd's mod of Exclusion 4) | – | – | – | 16.8 nM | 15 nM | –
21 | AGUACUGGCGCGUCGGUGUUGGUACAAUAAGCUUGUGAAACAUGAGGAUCACCCAUGUCCUCAUAAGCUCGUCUUAU [salish99_TOv2_r2_083] (puzzle: Sensor v3, turn-off variant 2) | 16.9 nM | 600 nM | 16.5 nM | – | – | –
22 | GGUACUAUCACCUGAGUGGUAGUGCUAUAAGCUUGUGAUACAUGAGGAUCACCCAUGUCCUCAUUUGCUCGUCUUAU [JL-sv3-2.29 JL mod] (puzzle: Sensor v3, turn-off variant 2) | 602 nM | 610 nM | 824 nM | – | – | –
23 | AAUAGCAAGUAAGAUCCUAACAUGAGGAUCACCCAUGUGCUCGUCUUAUAAAGUACUAUCACGAAAGUGAUAGUACA [Sensor 3, v1 - 47] (puzzle: Sensor v3, turn-off variant 1) | 64.8 nM | 51.4 nM | 74.3 nM | – | – | –
24 | UUAAUUAAUUAAGGCUGAAGAUCACAUGAGGAUCACCCAUGUAAGGAUAUCAGCUCGUGUAGAGCUGAGAAGGUACAUGCAGCC [ExNG3/18-B3] (Eterna round: R96, puzzle: Exclusion NG 3) | – | – | – | 50.6 nM | 336 nM | 345 nM
25 | AGCUGUGGCCGAGGAUAUACAUGAGGAUCACCCAUGUUACAUAAUUAGGCCUGGUAACAGGCUCCGUAGAAGGCGGUCUCAGCA [Eli eng2 - 005] (Eterna round: R96, puzzle: Exclusion NG 2) | – | – | – | 13 nM | 15.3 nM | 11.4 nM
26 | UUGUGCAAAGGAUAUACGUCCGACCUCGUGGAACUGAGAAUACAUGAGGAUCACCCAUGUAGAAGGUUGCCGAG [Racereus] (puzzle: Exclusion 2) | – | 10.5 nM | – | – | – | –
27 | GAGGUGGGUUUUCAGAGUAACAUGAGGAUCACCCAUGUAGAAGUUGAAGGUAUCAAGCGAAUGGCUCGUCAAAUGUG [JR_SV3TOV1_Sub048] (puzzle: Sensor v3, turn-off variant 1) | 135 nM | 171 nM | 233 nM | – | – | –
28 | CUCUUGUCAGGAUAUUAUGGACGAAGGCAGGGCCGCGUCAGUGAGAAGGGACAUGAGGAUCACCCAUGUAAAAU [Riintesoa] (puzzle: Exclusion 4) | – | 73.9 nM | – | – | – | –
29 | GAUCUGUAAGGAUAUCGUGCAAGUUUCAAAAGAGGCUUGUGCGAGAAGGUACAUGAGGAUCACCCAUGUAGGUU [Omei Ex4 B15] (Eterna round: R97, puzzle: Exclusion 4) | – | – | – | 52.6 nM | 40.1 nM | –
30 | UUAAAGUCAGGAUAUACAUGAGGAUCACCCAUGUAAAAUUUUAAUUUAAUUUUAAGGUGUAGAAGGGACAAUUU [Ex3 #2] (Eterna round: R97, puzzle: Exclusion 3) | – | – | – | 29.8 nM | 31.1 nM | –
31 | UGAGUGCUGCGAGGAUAUACAUGAGGAUCACCCAUGUGGUCCUGUGAGGCAAAGCCUCACAGGAUGUAGAAGGCGCAGUACUCU [Mat - Exclusion NG 2 - Mod of JL - D45] (Eterna round: R96, puzzle: Exclusion NG 2) | – | – | – | 95.2 nM | 22.5 nM | 13.7 nM
32 | CCUCCCUGAGGAUAUCCACCCUCAUACAUGAGGAUCACCCAUGUUCAACCCUGGGUUCCCGGAGAAGGCAGUUUCC [Megrez-2.4] (Eterna round: R97, puzzle: Exclusion 5) | – | – | – | 226 nM | 235 nM | –
33 | GAUAAGGUAGGAUAUACGAAUAAAAAGGGUAGAAGAAGAACACAUGAGGAUCACCCAUGUAGAAGGACCAAGAG [Mat - Exclusion 2 - Mod of my Tesla design - D23] (puzzle: Exclusion 2) | 43 nM | 20.6 nM | 19.6 nM | – | – | –
34 | AGUACUAACACGAAAGUGUUAGUUCAAUAAGCUUGUGAAACAUGAGGAUCACCCAUGUCCUCAUAAGCUCGUCUUAU [salish99_TOv2_r3_040] (Eterna round: R96, puzzle: Sensor v3, turn-off variant 2) | – | – | – | 15.2 nM | 17.5 nM | 461 nM
